Source: patent publication US20260209359A1 (NEXTERA, published 2026)

B1: AMC1 scDb (bispecific antibody)
chain: DIRLTQSPSSLSASVGDRVTMTCRASQTVATYVNWYQQKPGRAPKLLMYVTSIRQSEVPSRFSGDGFGTDFTLTINPLQPDDFATYYCQQAYSTPVTFGQGTKLEIKGGGGSEVQLQQSGPELVKPGASMKISCKASGYSFTGYTMNWVKQSHGKNLEWMGLINPYKGVSTYNQKFKDKATLTVDKSSSTAYMELLSLTSEDSAVYYCARSGYYGDSDWYFDVWGAGTTVTVSSGGGGSGGGGSGGGGSDIQMTQTTSSLSASLGDRVTISCRASQDIRNYLNWYQQKPDGTVKLLIYYTSRLHSGVPSKFSGSGSGTDYSLTISNLEQEDIATYFCQQGNTLPWTFAGGTKLEIKGGGGSQVQLVQSGAEVKKPGASVKVSCKVSGPKLYEVSMHWVRQAPGKGLEWMGGFDPEDGETIYAQKFQGRVTMTEDTSTDTAYMELSSLRSEDTAVYYCATDQGASWGFYWGQGTLVTVSS
notes: as m68
B2: AMC6 scDb (bispecific antibody)
chain: DIRLTQSPSSLSASVGDRVTMTCRASQTVATYVNWYQQKPGRAPKLLMYVTSIRQSEVPSRFSGDGFGTDFTLTINPLQPDDFATYYCQQAYSTPVTFGQGTKLEIKGGGGSEVQLQQSGPELVKPGASMKISCKASGYSFTGYTMNWVKQSHGKNLEWMGLINPYKGVSTYNQKFKDKATLTVDKSSSTAYMELLSLTSEDSAVYYCARSGYYGDSDWYFDVWGAGTTVTVSSGGGGSGGGGSGGGGSDIQMTQTTSSLSASLGDRVTISCRASQDIRNYLNWYQQKPDGTVKLLIYYTSRLHSGVPSKFSGSGSGTDYSLTISNLEQEDIATYFCQQGNTLPWTFAGGTKLEIKGGGGSQVQLVQSGAEVKKPGASVKVSCKVSGPKLYEVSMHWVRQAPGKGLEWMGGFDPEDGETIYAQKFQGRVTMTEDTSTDTAYMELSSLRSEDTAVYYCATDQGSSWGFYWGQGTLVTVSS
notes: as m68
B3: AM1 scDb (bispecific antibody)
chain: DIRVTQSPSSLSASVGDRVTITCRADVHIYWYLNWYQQKPGKAPKLLIYAASSLQSGVPSRFSGSGSGTDFTLTISSLQPEDFATYYCQQSYSTPYTFGQGTKLEIKGGGGSEVQLQQSGPELVKPGASMKISCKASGYSFTGYTMNWVKQSHGKNLEWMGLINPYKGVSTYNQKFKDKATLTVDKSSSTAYMELLSLTSEDSAVYYCARSGYYGDSDWYFDVWGAGTTVTVSSGGGGSGGGGSGGGGSDIQMTQTTSSLSASLGDRVTISCRASQDIRNYLNWYQQKPDGTVKLLIYYTSRLHSGVPSKFSGSGSGTDYSLTISNLEQEDIATYFCQQGNTLPWTFAGGTKLEIKGGGGSQVQLVQSGAEVKKPGASVKVSCKVSGYTLTELSMHWVRQAPGKGLEWMGGFDPEDGETIYAQKFQGRVTMTEDTSTDTAYMELSSLRSEDTAVYYCATDQGSSWGFYWGQGTLVTVSS
notes: VLA-VHB-VLB-VHA, anti-CD3 UCHT1
B4: AMC3 scDb (bispecific antibody)
chain: DIRVTQSPSSLSASVGDRVTITCRASQNIMWYLNWYQQKPGKAPKLLIYAASSLQSGVPSRFSGSGSGTDFTLTISSLQPEDFATYYCQQSYSTPYTFGQGTKLEIKGGGGSEVQLQQSGPELVKPGASMKISCKASGYSFTGYTMNWVKQSHGKNLEWMGLINPYKGVSTYNQKFKDKATLTVDKSSSTAYMELLSLTSEDSAVYYCARSGYYGDSDWYFDVWGAGTTVTVSSGGGGSGGGGSGGGGSDIQMTQTTSSLSASLGDRVTISCRASQDIRNYLNWYQQKPDGTVKLLIYYTSRLHSGVPSKFSGSGSGTDYSLTISNLEQEDIATYFCQQGNTLPWTFAGGTKLEIKGGGGSQVQLVQSGAEVKKPGASVKVSCKVSGPKLYEVSMHWVRQAPGKGLEWMGGFDPEDGETIYAQKFQGRVTMTEDTSTDTAYMELSSLRSEDTAVYYCATDQGASWGFYWGQGTLVTVSS
notes: as m68
B5: AMC10 scDb (bispecific antibody)
chain: DIQLTQSPSSLSASVGDRVTITCRASQNIMWYLNWYQQKPGKAPKLLIYAASGLQSGVPSRFSGSGSGTDFTLTISSLQPEDFATYYCQQSYSTPFTFGPGTKVDIKGGGGSEVQLQQSGPELVKPGASMKISCKASGYSFTGYTMNWVKQSHGKNLEWMGLINPYKGVSTYNQKFKDKATLTVDKSSSTAYMELLSLTSEDSAVYYCARSGYYGDSDWYFDVWGAGTTVTVSSGGGGSGGGGSGGGGSDIQMTQTTSSLSASLGDRVTISCRASQDIRNYLNWYQQKPDGTVKLLIYYTSRLHSGVPSKFSGSGSGTDYSLTISNLEQEDIATYFCQQGNTLPWTFAGGTKLEIKGGGGSQVQLVQSGAEVKKPGASVKVSCKVSGYTLTELSMHWVRQAPGKGLEWMGGFDPEDGETIYAQKFQGRVTMTEDTSTDTAYMELSSLRSEDTAVYYCATDQGSSWGFYWGQGTLVTVSS
notes: as m68
B6: AMC5 scDb (bispecific antibody)
chain: DIRVTQSPSSLSASVGDRVTITCRADIDIRWYLNWYQQKPGKAPKLLIYAASSLQSGVPSRFSGSGSGTDFTLTISSLQPEDFATYYCQQSYSTPYTFGQGTKLEIKGGGGSEVQLQQSGPELVKPGASMKISCKASGYSFTGYTMNWVKQSHGKNLEWMGLINPYKGVSTYNQKFKDKATLTVDKSSSTAYMELLSLTSEDSAVYYCARSGYYGDSDWYFDVWGAGTTVTVSSGGGGSGGGGSGGGGSDIQMTQTTSSLSASLGDRVTISCRASQDIRNYLNWYQQKPDGTVKLLIYYTSRLHSGVPSKFSGSGSGTDYSLTISNLEQEDIATYFCQQGNTLPWTFAGGTKLEIKGGGGSQVQLVQSGAEVKKPGASVKVSCKVSGPKLYEVSMHWVRQAPGKGLEWMGGFDPEDGETIYAQKFQGRVTMTEDTSTDTAYMELSSLRSEDTAVYYCATDQGASWGFYWGQGTLVTVSS
notes: as m68
B7: AMC12 scDb (bispecific antibody)
chain: DIRVTQSPSSLSASVGDRVTITCRASQNIMWYLNWYQQKPGKAPKLLIYAASSLQSGVPSRFSGSGSGTDFTLTISSLQPEDFATYYCQQAYRIPYTFGQGTKLEIKGGGGSEVQLQQSGPELVKPGASMKISCKASGYSFTGYTMNWVKQSHGKNLEWMGLINPYKGVSTYNQKFKDKATLTVDKSSSTAYMELLSLTSEDSAVYYCARSGYYGDSDWYFDVWGAGTTVTVSSGGGGSGGGGSGGGGSDIQMTQTTSSLSASLGDRVTISCRASQDIRNYLNWYQQKPDGTVKLLIYYTSRLHSGVPSKFSGSGSGTDYSLTISNLEQEDIATYFCQQGNTLPWTFAGGTKLEIKGGGGSQVQLVQSGAEVKKPGASVKVSCKVSGPKLYEVSMHWVRQAPGKGLEWMGGFDPEDGETIYAQKFQGRVTMTEDTSTDTAYMELSSLRSEDTAVYYCATDQGASWGFYWGQGTLVTVSS
notes: as m68
B8: AMC7 scDb (bispecific antibody)
chain: DIRVTQSPSSLSASVGDRVTITCRASQNIMWYLNWYQQKPGKAPKLLIYAASSLQSGVPSRFSGSGSGTDFTLTISSLQPEDFATYYCQQSYSTPYTFGQGTKLEIKGGGGSEVQLQQSGPELVKPGASMKISCKASGYSFTGYTMNWVKQSHGKNLEWMGLINPYKGVSTYNQKFKDKATLTVDKSSSTAYMELLSLTSEDSAVYYCARSGYYGDSDWYFDVWGAGTTVTVSSGGGGSGGGGSGGGGSDIQMTQTTSSLSASLGDRVTISCRASQDIRNYLNWYQQKPDGTVKLLIYYTSRLHSGVPSKFSGSGSGTDYSLTISNLEQEDIATYFCQQGNTLPWTFAGGTKLEIKGGGGSQVQLVQSGAEVKKPGASVKVSCKVSGPKLYEVSMHWVRQAPGKGLEWMGGFDPEDGETIYAQKFQGRVTMTEDTSTDTAYMELSSLRSEDTAVYYCATDQGSSWGFYWGQGTLVTVSS
notes: as m68
B9: AMC14 scDb (bispecific antibody)
chain: DIRVTQSPSSLSASVGDRVTITCRASQNIMWYLNWYQQKPGKAPKLLIYAASSLQSGVPSRFSGSGSGTDFTLTISSLQPEDFATYYCQQAYRIPYTFGQGTKLEIKGGGGSEVQLQQSGPELVKPGASMKISCKASGYSFTGYTMNWVKQSHGKNLEWMGLINPYKGVSTYNQKFKDKATLTVDKSSSTAYMELLSLTSEDSAVYYCARSGYYGDSDWYFDVWGAGTTVTVSSGGGGSGGGGSGGGGSDIQMTQTTSSLSASLGDRVTISCRASQDIRNYLNWYQQKPDGTVKLLIYYTSRLHSGVPSKFSGSGSGTDYSLTISNLEQEDIATYFCQQGNTLPWTFAGGTKLEIKGGGGSQVQLVQSGAEVKKPGASVKVSCKVSGPKLYEVSMHWVRQAPGKGLEWMGGFDPEDGETIYAQKFQGRVTMTEDTSTDTAYMELSSLRSEDTAVYYCATDQGSSWGFYWGQGTLVTVSS
notes: as m68
B10: AMC4 scDb (bispecific antibody)
chain: DIRVTQSPSSLSASVGDRVTITCRADHHIFWYLNWYQQKPGKAPKLLIYAASSLQSGVPSRFSGSGSGTDFTLTISSLQPEDFATYYCQQSYSTPYTFGQGTKLEIKGGGGSEVQLQQSGPELVKPGASMKISCKASGYSFTGYTMNWVKQSHGKNLEWMGLINPYKGVSTYNQKFKDKATLTVDKSSSTAYMELLSLTSEDSAVYYCARSGYYGDSDWYFDVWGAGTTVTVSSGGGGSGGGGSGGGGSDIQMTQTTSSLSASLGDRVTISCRASQDIRNYLNWYQQKPDGTVKLLIYYTSRLHSGVPSKFSGSGSGTDYSLTISNLEQEDIATYFCQQGNTLPWTFAGGTKLEIKGGGGSQVQLVQSGAEVKKPGASVKVSCKVSGPKLYEVSMHWVRQAPGKGLEWMGGFDPEDGETIYAQKFQGRVTMTEDTSTDTAYMELSSLRSEDTAVYYCATDQGASWGFYWGQGTLVTVSS
notes: as m68

Columns and labels:
[1] = biological target: T1, HLA-A*02:01/MAGE-A4^230-239, soluble recombinant biotinylated pHLA (human, UniProt P04439 25-299 at identity 0.94); P61769 21-119, biotinylated); experiment: ELISA, soluble biotinylated pHLA on neutravidin, scDb, protL-HRP
T1 construct: Empty biotinylated HLA-A2 monomers (Tetramer Shop) loaded with synthetic peptide; also called MAGE-A4 pMHC; MAGE-A4-pHLA

[2] = biological target: T2, HLA-A*02:01/MAGE-A4^230-239 displayed on cells (MAGE-A4^230-239 pulsed T2 cells; NCI-H1703, A375, THP1, … (human, UniProt P04439 25-365 at identity 0.94); P61769 21-119); experiment: cell-based or functional assay
[3] = biological target: T2, HLA-A*02:01/MAGE-A4^230-239 displayed …; experiment: cell-based or functional assay; remark: listed apart in the source

Row | Binder | EC50 [1] [nM] | IFNγ EC50 vs. target positive cells (pM) [2] [pM] | EC50 vs. NCI-H1703 (pM), T-cell specific killing [3] [pM]
1 | B1 | 0.45 | 3.6 | 
2 | B2 | 0.61 | 8.6 | 
3 | B3 | 0.36 | 11.8 | 6.4
4 | B4 | 0.35 | 7.3 | 
5 | B5 | 0.46 | 1.7 | 
6 | B6 | 0.32 | 8 | 
7 | B7 | 0.25 | 6.9 | 
8 | B8 | 0.41 | 8.5 | 
9 | B9 | 0.47 | 8.2 | 
10 | B10 | 0.36 | 9.2 | 
